According to patent US20020051974:
Read-outs that look alike come from different tables or passages of the source.

Assays:
[1] = tested on: T1, VEGF (vascular endothelial growth factor), P15692-4; assay: filter; conditions: 50% of RNA bound, PBS
T1 sequence: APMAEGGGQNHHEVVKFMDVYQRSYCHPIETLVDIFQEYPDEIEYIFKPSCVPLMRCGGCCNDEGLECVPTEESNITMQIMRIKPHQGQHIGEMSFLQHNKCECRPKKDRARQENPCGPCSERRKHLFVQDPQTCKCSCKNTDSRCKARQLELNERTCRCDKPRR

[2] = tested on: T1, VEGF (vascular endothelial growth factor), P15692-4; conditions: CITED Jellinek et al 1994, cited from earlier work

For “GGGAAUGGAUCCACAUCUACGAAUUCGAGGGUCCGUCUGCCGAGUCUUGUAACACCUUCACUGCAGACUUGACGAAGCUU [V02]”, the EC50 ([1]; 1 mM MgCl2, room temperature) was 21.3 nM.

Sequence “GGGAAUGGAUCCACAUCUACGAAUUCCGUUCUGCCGAGACUGCACGUGUGCUUGAAUUCACUGCAGACUUGACGAAGCUU [V09]” has an EC50 ([1]; 1 mM MgCl2, room temperature) of 24.2 nM.

With “GGGAAUGGAUCCACAUCUACGAAUUCAGGUGGAAAGCAAGUUCCGCGCACGUUAAUUUCACUGCAGACUUGACGAAGCUU [V08]” the EC50 ([1]; 1 mM MgCl2, room temperature) was 14.4 nM.

Work on “GGGAAUGGAUCCACAUCUACGAAUUCUGUAAGAUUGGUCUCCAGACUGCCGAGCUGUUCACUGCAGACUUGACGAAGCUU [V18]” yielded an EC50 ([1]; 1 mM MgCl2, text gives 8.5) of 8.52 nM.

In the case of “GGGAGCUCAGAAUAAACGCUCAAGACCCAUCGUCAACGGUUGAGUCUGUCCCGUUCGACAUGAGGCCCGGAUCCGGC [VEGF40 (RNA transcript of printed DNA)]”, the EC50 ([1]; 1 mM MgCl2, room temperature) is listed as 4.15 nM and the Kd [2] is listed as 0.19 nM.

“GGGAAUGGAUCCACAUCUACGAAUUCCGCGCACGUAGGUUGGGUGUAACUGCGUUGUUCACUGCAGACUUGACGAAGCUU [V05]” gave an EC50 ([1]; 1 mM MgCl2, room temperature) of 15.3 nM.

“GGGAAUGGAUCCACAUCUACGAAUUCAGGCAGCGUAGAGGGUUCACUCUGCCGAGUUUCACUGCAGACUUGACGAAGCUU [V01]” showed an EC50 ([1]; 1 mM MgCl2, room temperature) of 19 nM.

“GGGAAUGGAUCCACAUCUACGAAUUCGAUGGCGUUAGUGGGAAUGAUUCUGCCGAGUUCACUGCAGACUUGACGAAGCUU [V07]” showed an EC50 ([1]; 1 mM MgCl2, room temperature) of 17.3 nM.

“GGGAAUGGAUCCACAUCUACGAAUUCUUUGAAGAGGGUCAAUCCGCGCACGUUACGUUCACUGCAGACUUGACGAAGCUU [V03]” showed an EC50 ([1]; 1 mM MgCl2, room temperature) of 32.6 nM.

Sequence “GGGAAUGGAUCCACAUCUACGAAUUCGGGAACAGCUCUAUUCCGCGCACGUUUGAGUUCACUGCAGACUUGACGAAGCUU [V04]” has an EC50 ([1]; 1 mM MgCl2, room temperature) of 4.52 nM.

Sequence “GGGAAUGGAUCCACAUCUACGAAUUCCGCGCACGUAGGUUGGGUGUAACUGCGUUGUUCACUGCAGACUUGACGAAGCUU [V06]” has an EC50 ([1]; 1 mM MgCl2, printed sequence identical to V05) of 36.9 nM.

For “GGGAGCUCAGAAUAAACGCUCAAACGGUUCUGUGUGUGGACUAGCCGCGGCCGUUCGACAUGAGGCCCGGAUCCGGC [VEGF126 (RNA transcript of printed DNA)]”, the EC50 ([1]; 1 mM MgCl2, room temperature) is given as 19.9 nM and the Kd ([2]; unit not repeated for this value) is given as 0.14 nM.

For “GGGAAUGGAUCCACAUCUACGAAUUCCGCGCACGUCACGGGCCGACACGAAUAUGGUUCACUGCAGACUUGACGAAGCUU [V10]”, the EC50 ([1]; 1 mM MgCl2, room temperature) was 31.4 nM.

For “GGGAAUGGAUCCACAUCUACGAAUUCCGCGCGCGCUAACCUUGNGGNGNAAGUAUGUUCACUGCAGACUUGACGAAGCUU [V13]”, the EC50 ([1]; 1 mM MgCl2, sequence contains N) was 8.32 nM.

For “GGGAAUGGAUCCACAUCUACGAAUUCGGAUAUUCCGCGCACGUCAUUUCAUCAGCUUUCACUGCAGACUUGACGAAGCUU [V19]”, the EC50 ([1]; 1 mM MgCl2, room temperature) was 7.61 nM.
